The values that follow come from patent US20260266848A1, “COMPOSITIONS AND METHODS FOR DIAGNOSING AND TREATING DYSTONIA” (Duke University, priority 2023, published 2026).

To fix the notation:
B1: Srsf7 (protein, UniProt Q8BL97 1-267, looked up)
Serine/arginine-rich splicing …: MRSSARGRPLQAATAFFLSLFFFLRRFERGFWLWGGDSETKVYVGNLGTGAGKGELERAFSYYGPLRTVWIARNPPGFAFVEFEDPRDAEDAVRGLDGKVICGSRVRVELSTGMPRRSRFDRPPARRPFDPNDRCYECGEKGHYAYDCHRYSRRRRSRSRSRSHSRSRGRRYSRSRSRSRGRRSRSASPRRSRSVSLRRSRSASLRRSRSGSIIGSRYFQSRSRSRSRSRSISRPRSSRSKSRSPSPKRSRSPSGSPHRSASPERMD
B2: C1qtnf3 (protein, UniProt Q9BXJ4 23-246, looked up)
Complement C1q tumor necrosis …: QDEYMESPQTGGLPPDCSKCCHGDYSFRGYQGPPGPPGPPGIPGNHGNNGNNGATGHEGAKGEKGDKGDLGPRGERGQHGPKGEKGYPGIPPELQIAFMASLATHFSNQNSGIIFSSVETNIGNFFDVMTGRFGAPVSGVYFFTFSMMKHEDVEEVYVYLMHNGNTVFSMYSYEMKGKSDTSSNHAVLKLAKGDEVWLRMGNGALHGDHQRFSTFAGFLLFETK
B3: Rab6a (protein, UniProt P35279 2-208, looked up)
Ras-related protein Rab-6A: SAGGDFGNPLRKFKLVFLGEQSVGKTSLITRFMYDSFDNTYQATIGIDFLSKTMYLEDRTVRLQLWDTAGQERFRSLIPSYIRDSTVAVVVYDITNVNSFQQTTKWIDDVRTERGSDVIIMLVGNKTDLADKRQVSIEEGERKAKELNVMFIETSAKAGYNVKQLFRRVAAALPGMESTQDRSREDMIDIKLEKPQEQPVNEGGCSC
B4: Pura (protein, UniProt P42669 2-321, looked up)
Transcriptional activator …: ADRDSGSEQGGAALGSGGSLGHPGSGSGSGGGGGGGGGGGGSGGGGGAPGGLQHETQELASKRVDIQNKRFYLDVKQNAKGRFLKIAEVGAGGNKSRLTLSMSVAVEFRDYLGDFIEHYAQLGPSQPPDLAQAQDEPRRALKSEFLVRENRKYYMDLKENQRGRFLRIRQTVNRGPGLGSTQGQTIALPAQGLIEFRDALAKLIDDYGVEEEPAELPEGTSLTVDNKRFFFDVGSNKYGVFMRVSEVKPTYRNSITVPYKVWAKFGHTFCKYSEEMKKIQEKQREKRAACEQLHQQQQQQQEETTAATLLLQGEEEGEED
B5: Cryab (protein, UniProt P23927 1-175, looked up)
Alpha-crystallin B chain: MDIAIHHPWIRRPFFPFHSPSRLFDQFFGEHLLESDLFSTATSLSPFYLRPPSFLRAPSWIDTGLSEMRLEKDRFSVNLDVKHFSPEELKVKVLGDVIEVHGKHEERQDEHGFISREFHRKYRIPADVDPLTITSSLSSDGVLTVNGPRKQVSGPERTIPITREEKPAVAAAPKK
B6: Pld3 (protein, UniProt O35405 1-488, looked up)
5'-3' exonuclease PLD3: MKPKLMYQELKVPVEEPAGELPLNEIEAWKAAEKKARWVLLVLILAVVGFGALMTQLFLWEYGDLHLFGPNQRPAPCYDPCEAVLVESIPEGLEFPNATTSNPSTSQAWLGLLAGAHSSLDIASFYWTLTNNDTHTQEPSAQQGEEVLQQLQALAPRGVKVRIAVSKPNGPLADLQSLLQSGAQVRMVDMQKLTHGVLHTKFWVVDQTHFYLGSANMDWRSLTQVKELGVVMYNCSCLARDLTKIFEAYWFLGQAGSSIPSTWPRSFDTRYNQETPMEICLNGTPALAYLASAPPPLCPSGRTPDLKALLNVVDSARSFIYIAVMNYLPTMEFSHPRRFWPAIDDGLRRAAYERGVKVRLLISCWGHSDPSMRSFLLSLAALHDNHTHSDIQVKLFVVPTDESQARIPYARVNHNKYMVTERASYIGTSNWSGSYFTETAGTSLLVTQNGHGGLRSQLEAVFLRDWESPYSHDLDTSANSVGNACRLL
B7: Pdia4 (protein, UniProt P08003 21-638, looked up)
Protein disulfide-isomerase A4: AASAGDAHEDTSDTENATEEEEEEDDDDLEVKEENGVWVLNDGNFDNFVADKDTVLLEFYAPWCGHCKQFAPEYEKIASTLKDNDPPIAVAKIDATSASMLASKFDVSGYPTIKILKKGQAVDYDGSRTQEEIVAKVREVSQPDWTPPPEVTLSLTKDNFDDVVNNADIILVEFYAPWCGHCKKLAPEYEKAAKELSKRSPPIPLAKVDATEQTDLAKRFDVSGYPTLKIFRKGRPFDYNGPREKYGIVDYMIEQSGPPSKEILTLKQVQEFLKDGDDVVIIGLFQGDGDPAYLQYQDAANNLREDYKFHHTFSPEIAKFLKVSLGKLVLTHPEKFQSKYEPRFHVMDVQGSTEASAIKDYVVKHALPLVGHRKTSNDAKRYSKRPLVVVYYSVDFSFDYRAATQFWRNKVLEVAKDFPEYTFAIADEEDYATEVKDLGLSESGEDVNAAILDESGKKFAMEPEEFDSDTLREFVTAFKKGKLKPVIKSQPVPKNNKGPVKVVVGKTFDAIVMDPKKDVLIEFYAPWCGHCKQLEPIYTSLGKKYKGQKDLVIAKMDATANDITNDQYKVEGFPTIYFAPSGDKKNPIKFEGGNRDLEHLSKFIDEHATKRSRTKEEL
B8: Ipo7 (protein, UniProt Q9EPL8 1-1038, looked up)
Importin-7: MDPNTIIEALRGTMDPALREAAERQLNEAHKSLNFVSTLLQITMSEQLDLPVRQAGVIYLKNMITQYWPDREATPGDIAPYTIPEEDRHCIRENIVEAIIHSPELIRVQLTTCIHHIIKHDYPSRWTAIVDKIGFYLQSDNSACWLGILLCLYQLVKNYEYKKPEERSPLVAAMQHFLPVLKDRFIQLLSDQSDQSVLIQKQIFKIFYALVQYTLPLELINQQNLTEWVEILKTVVNRDVPNETLQVEEDDRPELPWWKCKKWALHILARLFERYGSPGNVSKEYNEFAEVFLKAFAVGVQQVLLKVLYQYKEKQYMAPRVLQQTLNYINQGVSHALTWKNLKPHIQGIIQDVIFPLMCYTDADEELWQEDPYEYIRMKFDVFEDFISPTTAAQTLLFTACSKRKEVLQKTMGFCYQILTEPNADPRKKDGALHMIGSLAEILLKKKIYKDQMEYMLQNHVFPLFSSELGYMRARACWVLHYFCEVKFKSDQNLQTALELTRRCLIDDREMPVKVEAAIALQVLISNQEKAKEYITPFIRPVMQALLHIIRETENDDLTNVIQKMICEYSEEVTPIAVEMTQHLAMTFNQVIQTGPDEEGSDDKAVTAMGILNTIDTLLSVVEDHKEITQQLEGICLQVIGTVLQQHVLEFYEEIFSLAHSLTCQQVSPQMWQLLPLVFEVFQQDGFDYFTDMMPLLHNYVTVDTDTLLSDTKYLEMIYSMCKKVLTGVAGEDAECHAAKLLEVIILQCKGRGIDQCIPLFVEAALERLTREVKTSELRTMCLQVAIAALYYNPHLLLNTLENLRFPNNVEPVTNHFITQWLNDVDCFLGLHDRKMCVLGLCALIDMEQIPQVLNQVSGQILPAFILLFNGLKRAYACHAEHENDSDDDEDAEDDDETEELGSDEDDIDEDGQEYLEILAKQAGEDGDDEDWEEDDAEETALEGYSTIIDDEDNPVDEYQIFKAIFQTIQNRNPVWYQALTHGLNEEQRKQLQDIATLADQRRAAHESKMIEKHGGYKFSAPVVPSSFNFGGPAPGMN
B9: Tra2b (protein, UniProt P62996 2-288, looked up)
Transformer-2 protein homolog …: SDSGEQNYGERESRSASRSGSAHGSGKSARHTPARSRSKEDSRRSRSKSRSRSESRSRSRRSSRRHYTRSRSRSRSHRRSRSRSYSRDYRRRHSHSHSPMSTRRRHVGNRANPDPNCCLGVFGLSLYTTERDLREVFSKYGPIADVSIVYDQQSRRSRGFAFVYFENVDDAKEAKERANGMELDGRRIRVDFSITKRPHTPTPGIYMGRPTYGSSRRRDYYDRGYDRGYDDRDYYSRSYRGGGGGGGGWRAAQDRDQIYRRRSPSPYYSRGGYRSRSRSRSYSPRRY
B10: Ssb (protein, UniProt P32067 1-415, looked up)
Lupus La protein homolog: MAENGDNEKMTALEAKICHQIEYYFGDFNLPRDKFLKEQIKLDEGWVPLETMIKFNRLNRLTTDFNVIVQALSKSKAKLMEVSADKTKIRRSPSRPLPEVTDEYKNDVKNRSVYIKGFPTDATLDDIKEWLDDKGQILNIQMRRTLHKTFKGSIFAVFDSIQSAKKFVEIPGQKYKDTNLLILFKEDYFAKKNEERKQSKVEAKLKAKQEHEGRHKPGSTETRALEGKMGCLLKFSGDLDDQTCREDLHFLFSNHGEIKWVDFARGAKEGIILFKEKAKEALEKARNANNGNLLLRNKKVTWKVLEGHAEKEALKKITDDQQESLNKWKSKGGHAGGRFKGSHVFTAARRFKGKGKGNRPGYAGAPKGRGQFHGRRTRFDDDDRRRGPMKRGRDGRDREEPASKHKKRENGARDK

One test deals with WT MEF EVs. Briefly: Quantitative LC-MS/MS proteomics of EVs from ISRIB-treated WT MEF cultures. Type of test: cell-based, mouse. The following applies: EV protein abundance, ISRIB-treated WT vs WT.
On to B1, for which the “WT + ISRIB/WT Cohen's d” value was 0.13.

With B2, the “WT + ISRIB/WT Cohen's d” value was −0.18.

Take B3: the “WT + ISRIB/WT Cohen's d” value turned out to be 0.44.

Regarding B4, the “WT + ISRIB/WT Cohen's d” value amounted to 0.52.

Take B5: the “WT + ISRIB/WT Cohen's d” value stood at 0.39.

B6: the “WT + ISRIB/WT Cohen's d” value amounted to 1.18.

Consider B7, for which the “WT + ISRIB/WT Cohen's d” value came to 1.37.

Regarding B8, the “WT + ISRIB/WT Cohen's d” value amounted to 0.30.

On to B9, for which the “WT + ISRIB/WT Cohen's d” value was determined as 0.54.

B10: the “WT + ISRIB/WT Cohen's d” value came out at 0.41.

The next test deals with DYT-TOR1A MEF EVs. Put plainly: Quantitative LC-MS/MS proteomics of EVs from drug-treated DYT-TOR1A MEF cultures (ritonavir, salubrinal). Also noted: key to RTV Corrective Direction / RTV Corrective Direction, Grwd1 / RTV Corrective Direction, Srrm2 / RTV Corrective Direction, Rbm17 / RTV Corrective Direction, Dcaf8 / RTV Corrective Direction, Edil3 / RTV Corrective Direction, Timp3 / RTV Corrective Direction, Heatr3 / RTV Corrective Direction, Brd4 / RTV Corrective Direction, P3h4 / RTV Corrective Direction, Pacsin3 / RTV Corrective Direction, Naa50 / RTV Corrective Direction, Lpar6 / RTV Corrective Direction, Ndrg1 / RTV Corrective Direction, Kntc1 / RTV Corrective Direction, Cdk11b / RTV Corrective Direction, Sumo1 / RTV Corrective Direction, Lsm4 / RTV Corrective Direction, Hmga2 / RTV Corrective Direction, Cstf1 / RTV Corrective Direction, Tes / RTV Corrective Direction, Sbno1 / RTV Corrective Direction, Unc119b / RTV Corrective Direction, Cfdp1 / RTV Corrective Direction, Sec61b: YES = protein abundance effect opposite to DYT/WT. Type of test: cell-based, mouse.
Details: not given
In the case of B4, the “RTV Corrective Direction” value is on record as “YES”.

Turning to B10, the “RTV Corrective Direction” value is recorded as “YES”.

The same test, now with this note: EV protein abundance, DYT + RTV (ritonavir) vs DYT, direction compared with DYT/WT.
As to B1, the “RTV Corrective Direction” value is on record as “YES”.

Regarding B2, the “RTV Corrective Direction” value is recorded as “YES”.

In the case of B3, the “RTV Corrective Direction” value was “YES”.

Turning to B5, the “RTV Corrective Direction” value was “YES”.

As to B6, the “RTV Corrective Direction” value is “YES”.

Consider B7, for which the “RTV Corrective Direction” value is “YES”.

Turning to B8, the “RTV Corrective Direction” value is reported as “YES”.

With B9, the “RTV Corrective Direction” value was “YES”.

The same test, now with this note: EV protein abundance, ritonavir (RTV)-treated DYT vs DYT.
With B1, the “DYT + RTV/DYT Cohen's d” value came out at 2.91.

As to B2, the “DYT + RTV/DYT Cohen's d” value is −3.24.

For the molecule B3, the “DYT + RTV/DYT Cohen's d” value is reported as 3.14.

With B4, the “DYT + RTV/DYT Cohen's d” value was 2.36.

With B5, the “DYT + RTV/DYT Cohen's d” value is given as 1.11.

For the molecule B6, the “DYT + RTV/DYT Cohen's d” value came to 0.61.

Consider B7, for which the “DYT + RTV/DYT Cohen's d” value turned out to be 2.25.

Regarding B8, the “DYT + RTV/DYT Cohen's d” value was 2.25.

Turning to B9, the “DYT + RTV/DYT Cohen's d” value was determined as 3.28.

With B10, the “DYT + RTV/DYT Cohen's d” value came out at 2.79.
